{
  "source": "paper PMC9504514",
  "about": "“Identification of a Potential Inhibitor (MCULE-8777613195-0-12) of New Delhi Metallo-β-Lactamase-1 (NDM-1) Using In Silico and In Vitro Approaches” (Molecules, 2022)",
  "key": {"[1]": {"target": "T1, New Delhi metallo-β-lactamase-1 (NDM-1) (Klebsiella pneumoniae, UniProt C7C422)", "T1 construct": "gene blaNDM-1", "T1 sequence (C7C422 29-270 limits assumed)": "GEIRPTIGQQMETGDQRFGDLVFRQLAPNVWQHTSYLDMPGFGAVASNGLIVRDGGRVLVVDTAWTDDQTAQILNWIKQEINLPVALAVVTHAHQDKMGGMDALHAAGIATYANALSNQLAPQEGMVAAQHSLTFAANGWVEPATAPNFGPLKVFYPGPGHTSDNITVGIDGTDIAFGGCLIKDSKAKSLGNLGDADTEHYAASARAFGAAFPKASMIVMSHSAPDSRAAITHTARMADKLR", "experiment": "biochemical"}, "[2]": {"target": "T1, New Delhi metallo-β-lactamase-1 (NDM-1)", "experiment": "steady-state hydrolysis kinetics (Km) with purified NDM-1", "format": "biochemical"}, "[3]": {"test_system": "CC1(C)S[C@@H]2[C@H](NC(=O)[C@H](N)c3ccccc3)C(=O)N2[C@H]1C(=O)O", "experiment": "steady-state hydrolysis kinetics (Km) with purified NDM-1", "format": "biochemical, Klebsiella pneumoniae", "conditions": "Zn2+ (two zinc ions)"}, "[4]": {"test_system": "CO/N=C(\\C(=O)N[C@@H]1C(=O)N2C(C(=O)O)=C(COC(C)=O)CS[C@H]12)c1csc(N)n1", "experiment": "steady-state hydrolysis kinetics (Km) with purified NDM-1", "format": "biochemical, Klebsiella pneumoniae", "conditions": "Zn2+ (two zinc ions)"}, "[5]": {"test_system": "C[C@@H](O)[C@H]1C(=O)N2C(C(=O)O)=C(S[C@@H]3CN[C@H](C(=O)N(C)C)C3)[C@H](C)[C@H]12", "experiment": "steady-state hydrolysis kinetics (Km) with purified NDM-1", "format": "biochemical, Klebsiella pneumoniae", "conditions": "Zn2+ (two zinc ions) substrate binding site (docking)"}, "[6]": {"test_system": "C[C@@H](O)[C@H]1C(=O)N2C(C(=O)O)=C(SCCN=CN)C[C@H]12", "experiment": "steady-state hydrolysis kinetics (Km) with purified NDM-1", "format": "biochemical, Klebsiella pneumoniae", "conditions": "Zn2+ (two zinc ions)"}},
  "data": [
    {"compound": "N#CC1=Cc2ccccc2[C@@H]2NN3C(C#N)=Cc4ccccc4[C@@H]3NN12", "note": "[MCULE-8777613195-0-12, [3R,14R]-1,2,12,13-tetrazapentacyclo [12.8.0.03,12.04,9.015,20]docosa-4,6,8,10,15,17,19,21-octaene-11,22-dicarbonitrile]", "values": [
      {"measurement": "IC50", "setting": "[1]", "result": "54.2 ± 6.3", "unit": "µM"}
    ]},
    {"compound": "O=C(Cc1cccs1)N[C@@H]1C(=O)N2C(C(=O)O)=C(/C=C/c3ccc([N+](=O)[O-])cc3[N+](=O)[O-])CS[C@H]12", "note": "[nitrocefin]", "values": [
      {"measurement": "Km", "setting": "[2]", "result": "27.1 ± 2.1", "unit": "µM"}
    ]},
    {"compound": "New Delhi metallo-β-lactamase-1 (NDM-1) (Klebsiella pneumoniae)", "values": [
      {"measurement": "Km", "setting": "[3]", "result": "99.4 ± 7.6", "unit": "µM"},
      {"measurement": "kcat", "setting": "[3]", "result": "392 ± 25.7", "unit": "s⁻¹"},
      {"measurement": "kcat/Km", "setting": "[3]", "result": "3.94e+06 ± 140000", "unit": "M⁻¹ s⁻¹"},
      {"measurement": "Km", "setting": "[4]", "result": "61.6 ± 5.8", "unit": "µM"},
      {"measurement": "kcat", "setting": "[4]", "result": "413 ± 28.1", "unit": "s⁻¹"},
      {"measurement": "kcat/Km", "setting": "[4]", "result": "6.7e+06 ± 270000", "unit": "M⁻¹ s⁻¹"},
      {"measurement": "Km", "setting": "[5]", "result": "58.3 ± 5.2", "unit": "µM"},
      {"measurement": "kcat", "setting": "[5]", "result": "301 ± 11.9", "unit": "s⁻¹"},
      {"measurement": "kcat/Km", "setting": "[5]", "result": "5.17e+06 ± 330000", "unit": "M⁻¹ s⁻¹"},
      {"measurement": "Km", "setting": "[6]", "result": "83.9 ± 6.7", "unit": "µM"},
      {"measurement": "kcat", "setting": "[6]", "result": "700 ± 18.7", "unit": "s⁻¹"},
      {"measurement": "kcat/Km", "setting": "[6]", "result": "8.34e+06 ± 640000", "unit": "M⁻¹ s⁻¹"}
    ]}
  ]
}
